According to paper PMC8351545 (Molecular Biology of the Cell, 2021):

B1: human Bonsai Ndc80 complex (Bonsai Ndc80-GFP) (complex)
chain 1: MKRSSVSSGGAGRLSMQELRSQDVNKQGLYTPQTKEKPTFGKLSINKPTSERKVSLFGKRTSGHGSRNSQLGIFSSSEKIKDPRPLNDKAFIQQCIRQLCEFLTENGYAHNVSMKSLQAPSVKDFLKIFTFLYGFLCPSYELPDTKFEEEVPRIFKDLGYPFALSKSSMYTVGAPHTWPHIVAALVWLIDCIKIHTAMKESSPLFDDGQPWGEETEDGIMHNKLFLDYTIKCYESFMSGADSFDEMNAELQSKLKDLFNVDAFKLESLEAKNRALNEQIARLEQERSTANKANAERLKRLQKSADLYKDRLGLEIRKIYGEKLQFIFTNIDPKNPESPFMFSLHLNEARDYEVSDSAPHLEGLAEFQENVRKTNNFSAFLANVRKAFTATVYN
chain 2: METLSFPRYNVAEIVIHIRNKILTGADGKNLTKNDLYPNPKPEVLHMIYMRALQIVYGIRLEHFYMMPVNSEVMYPHLMEGFLPFSNLVTHLDSFLPICRVNDFETADILCPKAKRTSRFLSGIINFIHFREACRETYMEFLWQYKSSADKMQQLNAAHQEALMKLERLEKEVDEDTTVTIPSAVYVAQLYHQVSKIEWDYECEPGMVKGIHHGPSVAQPIHLDSTQLSRKFISDYLWSLVDTEW

Experiments:
[1] = target: recombinant phosphomimetic CENP-T/W complex (T11D, T27D, T85D) (human) (UniProt Q96BT3); experiment: pull-down
[2] = target: recombinant full-length wild-type CENP-T/W complex (human, UniProt Q96BT3 1-561; Q5EE01 1-88); experiment: pull-down
recombinant full-length wild-type CENP-T/W complex, sequence (Q96BT3 whole entry, chain 1 of 2): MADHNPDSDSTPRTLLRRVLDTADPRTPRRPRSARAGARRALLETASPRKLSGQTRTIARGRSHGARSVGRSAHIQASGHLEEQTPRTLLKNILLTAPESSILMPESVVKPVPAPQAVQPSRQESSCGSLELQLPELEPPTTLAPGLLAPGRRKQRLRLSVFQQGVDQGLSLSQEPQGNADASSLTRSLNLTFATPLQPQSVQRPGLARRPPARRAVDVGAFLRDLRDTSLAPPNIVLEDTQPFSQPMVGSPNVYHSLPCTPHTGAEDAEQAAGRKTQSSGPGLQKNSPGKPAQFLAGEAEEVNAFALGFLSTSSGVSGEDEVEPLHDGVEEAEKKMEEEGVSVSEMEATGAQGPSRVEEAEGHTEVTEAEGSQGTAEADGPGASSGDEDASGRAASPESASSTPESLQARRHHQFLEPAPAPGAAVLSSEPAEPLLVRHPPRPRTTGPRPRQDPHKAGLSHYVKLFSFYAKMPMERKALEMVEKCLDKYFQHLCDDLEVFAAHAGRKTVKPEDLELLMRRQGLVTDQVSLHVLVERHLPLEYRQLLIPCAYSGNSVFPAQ
recombinant full-length wild-type CENP-T/W complex, sequence (Q5EE01 whole entry, chain 2 of 2): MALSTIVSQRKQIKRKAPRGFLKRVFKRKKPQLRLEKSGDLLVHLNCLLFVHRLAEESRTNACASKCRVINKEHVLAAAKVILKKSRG

recombinant phosphomimetic CENP-T/W complex (T11D, T27D, T85D) (human), sequence (Q96BT3 whole entry T11D/T27D/T85D, chain 1 of 2): as the sequence (Q96BT3 whole entry, chain 1 of 2) above, with T11D, T27D, T85D counted along it
recombinant phosphomimetic CENP-T/W complex (T11D, T27D, T85D) (human), sequence (Q5EE01 whole entry, chain 2 of 2, further chain): as the sequence (Q5EE01 whole entry, chain 2 of 2) above

Molecule | fold weaker recruitment than the Ndc80 proteins with shortened stalk [1] | binding result [2]
recombinant full-length GFP-fused human Ndc80 complex (from UniProt O14777 1-642; Q9BZD4 1-464; Q8NBT2 1-197; Q9HBM1 1-224) | 5 times weaker | –
B1 | – | binds
